Assays:
[1] = Preparation of single peptide injection preparations using injection solvent (Comparative Example 1); details: for Whether injection preparation could be prepared (in words): 2 mg to 20 mg peptide in 1 ml injection solvent; for Peptide concentration at which injection preparation could be prepared, Comparative Example 1 (injection solvent): injection solvent (water), room temperature
Procedure: Pharmaceutical water defined by the Japanese Pharmacopoeia was used as an injection solvent.
In order to prepare formulations containing one of the peptides shown in Table 1, each of the peptides shown in Table 1 were added to 1 ml of an injection solvent. The resultants were agitated at room temperature so as to dissolve the entire amounts of the peptides added, and thereby colorless and clear solutions of each peptide were obtained. Thereafter, the peptide solutions were sterilized via filtration (with the use of a 0.22-μm filter) to obtain injection preparations.
The amounts of peptides added varied within the range of 2 mg to 20 mg, and injection preparations were prepared at each concentration. […] For these peptides, peptide concentrations that enable preparation of injection preparations were investigated.

[2] = Stability of lyophilized formulation, peptide content in the vial by HPLC (Example 7); format: physicochemical; details: 25 degrees C., humidity 60%, relative to comparative solution peak area = 100%
Procedure: 107.7 g of L-arginine and 110.4 g of sodium carbonate hydrate were dissolved in 5,500 ml of an injection solvent. Peptide 1, Peptide 2, Peptide 3, and Peptide 4 were dissolved therein in amounts of 6.2 g, 7.5 g, 8.7 g, and 8.0 g, respectively. Thereafter, the total amount of the solution was adjusted to 7,000 ml with the addition of an injection solvent, and a combination peptide solution was obtained. […] Following lyophilization, the vial was fully stoppered and the aluminum cap seaming was conducted. Thus, a lyophilized formulation was produced.
Further, the results shown above were subjected to regression analysis, so as to predict stability 24 months later.

[3] = Preparation of single peptide injection preparations using sodium carbonate solution (Example 1); format: physicochemical; details: for Whether injection preparation could be prepared (in words): 5 mg to 20 mg peptide in 1 ml injection solvent containing sodium carbonate; for Peptide concentration at which injection preparation could be prepared, Example 1 (Na2CO3): 41 mg sodium carbonate decahydrate in 1 ml injection solvent, class symbol; for pH of injection preparation, Example 1 (Na2CO3): injection solvent containing sodium carbonate
Procedure: (§1) 41 mg of sodium carbonate decahydrate (Na2CO3.10H2O) was dissolved in 1 ml of an injection solvent to obtain an injection solvent containing sodium carbonate. In order to prepare formulations of the each peptide that was not dissolved in an injection solvent in Comparative Example 1, Peptides 1, 2, 4, 7, and 10 were separately added to 1 ml of injection solvents containing sodium carbonate.
In the case of Peptide 1, it was confirmed that the injection preparation could be obtained with the addition of 9 mg of peptide at the maximum. All the obtained injection preparations had pH levels within adequate range for injection (Table 2).

[4] = Combination peptide injection preparation using arginine solution (Example 4); format: physicochemical; parameters: key to Dissolution on successive addition, Example 4-1 (Arg) (1 mg each) / Dissolution on successive addition, Example 4-2 (Arg) (2 mg each): ◯: Dissolved; X: White Turbid; details: for Dissolution on successive addition, Example 4-1 (Arg) (1 mg each): 1 mg each peptide added one after another to 1 ml arginine solvent
Procedure: In order to prepare an injection preparation containing combination of the peptides shown in Table 1, the 10 types of peptides shown in Table 1 were added in an amount of 1 mg each to 1 ml of the injection solvent containing arginine as used in Example 2. The entire amount of one peptide was dissolved upon addition thereof to obtain a colorless and clear solution, and another peptide was then added thereto.
Subsequently, preparation of another injection preparation containing combination of the peptides was attempted in the same manner as described above, except that the amount of each peptide added was changed to 2 mg. […] Thus, no other peptides were added thereafter.

[5] = Combination peptide injection preparation using sodium carbonate/arginine solution (Example 6); format: physicochemical; parameters: key to Dissolution on successive addition, Example 6 (Na2CO3/Arg) (2 mg each) / Dissolution of further 2 mg of Peptide 2, Example 6 (Na2CO3/Arg): ◯: Dissolved; X: White Turbid; details: 2 mg each peptide added one after another to 1 ml sodium carbonate/arginine solvent
Procedure: (§2) In order to prepare an injection preparation containing combination of the peptides shown in Table 1, the 10 types of peptides shown in Table 1 were added in an amount of 2 mg each to 1 ml of the injection solvent containing sodium carbonate and arginine as used in Example 3. The addition of each peptide was conducted in the same manner as in Example 4.

[6] = Preparation of injection preparations using sodium carbonate/arginine solution (Example 3); format: physicochemical; details: for Peptide concentration at which injection preparation could be prepared, Example 3 (Na2CO3/Arg): 41 mg sodium carbonate decahydrate and 40 mg L-arginine in 1 ml injection solvent; for pH of injection preparation, Example 3 (Na2CO3/Arg): injection solvent containing sodium carbonate and arginine
Procedure: 41 mg of sodium carbonate decahydrate and 40 mg of L-arginine were dissolved in 1 ml of an injection solvent to obtain an injection solvent containing sodium carbonate and arginine.
In the case of Peptide 3, it was confirmed that the injection preparation could be obtained with the addition of 15 mg of peptide at the maximum. All the obtained injection preparations had pH levels within adequate range for injection (Table 2).

[7] = Preparation of single peptide injection preparations using arginine solution (Example 2); format: physicochemical; details: for Whether injection preparation could be prepared (in words): 5 mg to 20 mg peptide in 1 ml injection solvent containing arginine; for Peptide concentration at which injection preparation could be prepared, Example 2 (Arg): 40 mg L-arginine in 1 ml injection solvent, class symbol; for pH of injection preparation, Example 2 (Arg): injection solvent containing arginine
Procedure: as §1, with “40” for “41”, “L-arginine” for “sodium carbonate decahydrate (Na2CO3.10H2O)”, “arginine.” for “sodium carbonate.”, “of” for “of the”
In the case of Peptide 1, it was confirmed that the injection preparation could be obtained with the addition of 6 mg of peptide at the maximum. All the obtained injection preparations had pH levels within adequate range for injection (Table 2).

[8] = Combination peptide injection preparation using sodium carbonate solution (Example 5); format: physicochemical; parameters: key to Dissolution on successive addition, Example 5 (Na2CO3) (2 mg each) / Dissolution of further 2 mg of Peptide 2, Example 5 (Na2CO3): ◯: Dissolved; X: White Turbid; details: 2 mg each peptide added one after another to 1 ml sodium carbonate solvent
Procedure: as §2, with “carbonate” for “carbonate and arginine”, “1.” for “3.”

Sequence | Whether injection preparation could be prepared (in words) [1] | Peptide concentration at which injection preparation could be prepared, Comparative Example 1 (injection solvent) ([1]; class symbol) | Whether injection preparation could be prepared (in words) [3] | Peptide concentration at which injection preparation could be prepared, Example 1 (Na2CO3) [3] | pH of injection preparation, Example 1 (Na2CO3) [3] | Dissolution on successive addition, Example 4-1 (Arg) (1 mg each) [4] | Dissolution on successive addition, Example 6 (Na2CO3/Arg) (2 mg each) [5] | Peptide concentration at which injection preparation could be prepared, Example 3 (Na2CO3/Arg) ([6]; class symbol) | pH of injection preparation, Example 3 (Na2CO3/Arg) [6] | Whether injection preparation could be prepared (in words) [7] | Peptide concentration at which injection preparation could be prepared, Example 2 (Arg) [7] | pH of injection preparation, Example 2 (Arg) [7] | Dissolution on successive addition, Example 5 (Na2CO3) (2 mg each) [8] | other results
IYTWIEDHF (T cell epitope) [Peptide 4] | not possible to prepare the injection preparations regardless of the amounts of peptides added | X (0.08 mg/ml or less) | possible to prepare the injection preparations regardless of the amounts of peptides added | ⊚ (20 mg/ml or more) | 8.88 | ◯ | ◯ | ⊚ (20 mg/ml or more) | 9.69 | possible to prepare the injection preparations regardless of the amounts of peptides added | ⊚ (20 mg/ml or more) | 8.95 | ◯ | Peptide content in the vial, 0 months [2]: 101.2%; Peptide content in the vial, 1 month [2]: 99.6%; Peptide content in the vial, 3 months [2]: 99.4%; Peptide content in the vial, 6 months [2]: 99.5%
RYCNLEGPPI (T cell epitope) [Peptide 5] | possible to prepare the injection preparations regardless of the amounts of peptides added | ⊚ (20 mg/ml or more) | – | – | – | ◯ | ◯ | ⊚ (20 mg/ml or more) | 10.20 | – | – | – | ◯ | –
VYGIRLEHF (T cell epitope) [Peptide 9] | possible to prepare the injection preparations regardless of the amounts of peptides added | ⊚ (20 mg/ml or more) | – | – | – | ◯ | ◯ | ⊚ (20 mg/ml or more) | 9.84 | – | – | – | ◯ | –
SYRNEIAYL (T cell epitope) [Peptide 7] | not possible to prepare the injection preparations regardless of the amounts of peptides added | – | possible to prepare the injection preparations regardless of the amounts of peptides added | ⊚ (20 mg/ml or more) | 9.18 | ◯ | ◯ | ⊚ (20 mg/ml or more) | 9.97 | possible to prepare the injection preparations regardless of the amounts of peptides added | ⊚ (20 mg/ml or more) | 9.68 | ◯ | Peptide concentration at which injection preparation could be prepared, Comparative Example 1 (injection solvent) ([1]; numeric): 0.5 mg/mL
RFVPDGNRI (T cell epitope) [Peptide 6] | possible to prepare the injection preparations regardless of the amounts of peptides added | ⊚ (20 mg/ml or more) | – | – | – | ◯ | ◯ | ⊚ (20 mg/ml or more) | 10.55 | – | – | – | ◯ | –
KVYLRVRPLL (T cell epitope) [Peptide 3] | possible to prepare the injection preparations regardless of the amounts of peptides added | ⊚ (20 mg/ml or more) | – | – | – | ◯ | ◯ | – | – | – | – | – | ◯ | Peptide content in the vial, 0 months [2]: 103.7%; Peptide content in the vial, 1 month [2]: 103.4%; Peptide content in the vial, 3 months [2]: 102.7%; Peptide content in the vial, 6 months [2]: 100.1%; Dissolution on successive addition (in words), Example 4 ([4]; 2 mg each in 1 ml arginine solvent, added after Peptide 1 and Peptide 2): white turbidity; Dissolution on successive addition, Example 4-2 (Arg) (2 mg each) ([4]; 2 mg each peptide added one after another to 1 ml arginine solvent): X; Peptide concentration at which injection preparation could be prepared, Example 3 (Na2CO3/Arg) ([6]; numeric): 15 mg/mL; Maximum amount of peptide added that gave an injection preparation ([6]; in 1 ml injection solvent containing sodium carbonate and arginine): 15 mg
EYCPGGNLP (EYCPGGNLF; T cell epitope) [Peptide 8] | possible to prepare the injection preparations regardless of the amounts of peptides added | ⊚ (20 mg/ml or more) | – | – | – | ◯ | ◯ | ⊚ (20 mg/ml or more) | 9.80 | – | – | – | ◯ | –
DYLNEWGSRF (T cell epitope) [Peptide 10] | not possible to prepare the injection preparations regardless of the amounts of peptides added | X (0.08 mg/ml or less) | possible to prepare the injection preparations regardless of the amounts of peptides added | ⊚ (20 mg/ml or more) | 9.35 | ◯ | ◯ | ⊚ (20 mg/ml or more) | 10.14 | possible to prepare the injection preparations regardless of the amounts of peptides added | ⊚ (20 mg/ml or more) | 9.87 | ◯ | –

Source: patent US20150359864A1, “PHARMACEUTICAL COMPOSITION CONTAINING PEPTIDES” (ONCOTHERAPY SCIENCE, INC., priority 2012, published 2015)
